# Laboratory results reported in doi:10.1101/2021.08.20.457142.
# B1: MKK6 D-site peptide / p38-alpha (MAPK14) L195A, full length (parent complex)
# chain 1: SQSKGKKRNPGLKIPKEAFEQP
# chain 2: MSQERPTFYRQELNKTVWEVPERYQNLSPVGSGAYGSVCAAFDTKTGHRVAVKKLSRPFQSIIHAKRTYRELRLLKHMKHENVIGLLDVFTPARSLEEFNDVYLVTHLMGADLNNIVKCQKLTDDHVQFLIYQILRGLKYIHSADIIHRDLKPSNLAVNEDCELKILDFGLARHTDDEMTGYVATRWYRAPEIMANWMHYNQTVDIWSVGCIMAELLTGRTLFPGTDHIDQLKLILRLVGTPGAELLKKISSESARNYIQSLAQMPKMNFANVFIGANPLAVDLLEKMLVLDSDKRITAAQALAHAYFAQYHDPDDEPVAEPYDQSFESRDFLIDEWKSLTYDEVISFVPPPLDQEEMES
# Variants of: B1
row,screen value,Variant
1,0.315 Z-score of the enrichment rate within one screen of 711 sequences,"chain 1 N9A, chain 1 P10A"
2,1.08 Z-score of the enrichment rate within one screen of 711 sequences,chain 1 K4F
3,0.981 Z-score of the enrichment rate within one screen of 711 sequences,chain 1 K4V
4,0.888 Z-score of the enrichment rate within one screen of 711 sequences,chain 1 K4H
5,0.526 Z-score of the enrichment rate within one screen of 711 sequences,chain 1 K4C
6,1.02 Z-score of the enrichment rate within one screen of 711 sequences,chain 1 K4Q
7,-0.172 Z-score of the enrichment rate within one screen of 711 sequences,chain 1 K4D
8,-0.0666 Z-score of the enrichment rate within one screen of 711 sequences,chain 1 K4P
9,0.543 Z-score of the enrichment rate within one screen of 711 sequences,chain 1 K4G
10,0.786 Z-score of the enrichment rate within one screen of 711 sequences,chain 1 K4I
11,0.747 Z-score of the enrichment rate within one screen of 711 sequences,chain 1 K4Y
12,-0.602 Z-score of the enrichment rate within one screen of 711 sequences,"chain 1 R8A, chain 1 K16A"
13,0.278 Z-score of the enrichment rate within one screen of 711 sequences,"chain 1 G11A, chain 1 K16A"
14,-0.745 Z-score of the enrichment rate within one screen of 711 sequences,"chain 1 K13A, chain 1 I14A"
15,-0.0907 Z-score of the enrichment rate within one screen of 711 sequences,chain 1 K13N
16,-0.0532 Z-score of the enrichment rate within one screen of 711 sequences,chain 1 K13S
17,0.144 Z-score of the enrichment rate within one screen of 711 sequences,chain 1 K13V
18,0.477 Z-score of the enrichment rate within one screen of 711 sequences,chain 1 K13I
19,-0.943 Z-score of the enrichment rate within one screen of 711 sequences,chain 1 K13D
20,-0.412 Z-score of the enrichment rate within one screen of 711 sequences,chain 1 K13A
21,-1.05 Z-score of the enrichment rate within one screen of 711 sequences,chain 1 K13G
22,0.119 Z-score of the enrichment rate within one screen of 711 sequences,chain 1 K13F
23,-0.274 Z-score of the enrichment rate within one screen of 711 sequences,chain 1 K13L
24,-0.109 Z-score of the enrichment rate within one screen of 711 sequences,"chain 1 R8A, chain 1 G11A"
25,-0.226 Z-score of the enrichment rate within one screen of 711 sequences,"chain 1 K7A, chain 1 P10A"

row,screen value,Variant
1,1.02 Z-score of the enrichment rate within one screen of 711 sequences,"chain 1 N9A, chain 1 G11A"
2,-0.715 Z-score of the enrichment rate within one screen of 711 sequences,"chain 1 K6A, chain 1 L12A"
3,-0.823 Z-score of the enrichment rate within one screen of 711 sequences,chain 1 I14P
4,-0.82 Z-score of the enrichment rate within one screen of 711 sequences,chain 1 I14W
5,-1.3 Z-score of the enrichment rate within one screen of 711 sequences,chain 1 I14T
6,-0.906 Z-score of the enrichment rate within one screen of 711 sequences,chain 1 I14N
7,-1.38 Z-score of the enrichment rate within one screen of 711 sequences,chain 1 I14S
8,-1.29 Z-score of the enrichment rate within one screen of 711 sequences,chain 1 I14G
9,-1.37 Z-score of the enrichment rate within one screen of 711 sequences,chain 1 L12N
10,-0.861 Z-score of the enrichment rate within one screen of 711 sequences,chain 1 L12G
11,-0.853 Z-score of the enrichment rate within one screen of 711 sequences,chain 1 L12F
12,-1.31 Z-score of the enrichment rate within one screen of 711 sequences,chain 1 L12A
13,-1 Z-score of the enrichment rate within one screen of 711 sequences,chain 1 L12H
14,-0.424 Z-score of the enrichment rate within one screen of 711 sequences,chain 1 L12V
15,-1.3 Z-score of the enrichment rate within one screen of 711 sequences,chain 1 L12K
16,-1.06 Z-score of the enrichment rate within one screen of 711 sequences,chain 1 L12T
17,1.6 Z-score of the enrichment rate within one screen of 711 sequences,chain 1 S3P
18,1.29 Z-score of the enrichment rate within one screen of 711 sequences,chain 1 S3N
19,0.932 Z-score of the enrichment rate within one screen of 711 sequences,chain 1 S3D
20,1.84 Z-score of the enrichment rate within one screen of 711 sequences,chain 1 S3C
21,-0.878 Z-score of the enrichment rate within one screen of 711 sequences,"chain 1 R8A, chain 1 I14A"
22,2.7 Z-score of the enrichment rate within one screen of 711 sequences,"chain 1 S3A, chain 1 P15A"
23,0.653 Z-score of the enrichment rate within one screen of 711 sequences,chain 1 K6A
24,1.9 Z-score of the enrichment rate within one screen of 711 sequences,chain 1 K6R
25,0.527 Z-score of the enrichment rate within one screen of 711 sequences,chain 1 K6P

row,screen value,Variant
1,-0.606 Z-score of the enrichment rate within one screen of 711 sequences,chain 1 K6E
2,0.0134 Z-score of the enrichment rate within one screen of 711 sequences,chain 1 K6D
3,0.748 Z-score of the enrichment rate within one screen of 711 sequences,chain 1 K6V
4,1.14 Z-score of the enrichment rate within one screen of 711 sequences,chain 1 G11F
5,1.68 Z-score of the enrichment rate within one screen of 711 sequences,chain 1 G11R
6,1.13 Z-score of the enrichment rate within one screen of 711 sequences,chain 1 G11A
7,0.683 Z-score of the enrichment rate within one screen of 711 sequences,chain 1 G11S
8,1.24 Z-score of the enrichment rate within one screen of 711 sequences,chain 1 G11M
9,1.26 Z-score of the enrichment rate within one screen of 711 sequences,chain 1 G11Y
10,1.68 Z-score of the enrichment rate within one screen of 711 sequences,chain 1 P15R
11,1.24 Z-score of the enrichment rate within one screen of 711 sequences,chain 1 P15T
12,0.418 Z-score of the enrichment rate within one screen of 711 sequences,chain 1 P15E
13,1.65 Z-score of the enrichment rate within one screen of 711 sequences,chain 1 P15K
14,0.848 Z-score of the enrichment rate within one screen of 711 sequences,chain 1 P15G
15,0.93 Z-score of the enrichment rate within one screen of 711 sequences,chain 1 P15Y
16,2.65 Z-score of the enrichment rate within one screen of 711 sequences,"chain 1 G5A, chain 1 P15A"
17,-0.984 Z-score of the enrichment rate within one screen of 711 sequences,"chain 1 K6A, chain 1 K13A"
18,-0.689 Z-score of the enrichment rate within one screen of 711 sequences,"chain 1 N9A, chain 1 K13A"
19,4.45 Z-score of the enrichment rate within one screen of 711 sequences,chain 1 G5W
20,1.65 Z-score of the enrichment rate within one screen of 711 sequences,chain 1 G5S
21,2.63 Z-score of the enrichment rate within one screen of 711 sequences,chain 1 G5M
22,1.64 Z-score of the enrichment rate within one screen of 711 sequences,chain 1 G5N
23,3.61 Z-score of the enrichment rate within one screen of 711 sequences,chain 1 G5F
24,1.67 Z-score of the enrichment rate within one screen of 711 sequences,chain 1 G5T
25,2.33 Z-score of the enrichment rate within one screen of 711 sequences,chain 1 G5K
